Source: paper PMC8951541, “Sunflower WRINKLED1 Plays a Key Role in Transcriptional Regulation of Oil Biosynthesis”

Tests used:
[1] = target: T1, His-HaWRI1(52-234), AP2 domain (Helianthus annuus, UniProt A0A251SM13 52-234); assay: competition; 10x to 60x unlabeled probe against biotin-labeled N1 (EMSA); EMSA: 15 mM HEPES-KOH pH 7.5, 7.5 mM KCl, 0.5 mM EDTA, 5% glycerol, 2 mM DTT, 1 ug/uL BSA, 0.05 ug/uL poly(dI-dC), 20 uL, on ice 30 min; 5% native PAGE; settings: protein: recombinant; tags: 6xHis (pET41a-6xHis vector); label: none
[2] = target: T1, His-HaWRI1(52-234), AP2 domain; assay: EMSA; poly(dI-dC) 0.05 ug/uL; 280 ng protein; 2 fmol/uL probe; EMSA: 15 mM HEPES-KOH pH 7.5, 7.5 mM KCl, 0.5 mM EDTA, 5% glycerol, 2 mM DTT, 1 ug/uL BSA, 0.05 ug/uL poly(dI-dC), 20 uL, on ice 30 min; 5% native PAGE; settings: protein: recombinant; tags: 6xHis (pET41a-6xHis vector); label: 5' biotin

T1 sequence (A0A251SM13 entry or part of it): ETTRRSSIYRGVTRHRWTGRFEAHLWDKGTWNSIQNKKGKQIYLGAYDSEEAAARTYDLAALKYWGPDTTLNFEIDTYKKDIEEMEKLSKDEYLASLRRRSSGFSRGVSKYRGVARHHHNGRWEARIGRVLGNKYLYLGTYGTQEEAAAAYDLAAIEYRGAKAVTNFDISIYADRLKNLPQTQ

B1: proBCCP2 AW-box cold probe (dsDNA)
DNA 1: TACTTCCTCGGTTTCATCGTCCAC
DNA 2: GTGGACGATGAAACCGAGGAAGTA
binding result [1]: binds

B2: proBCCP2 AW-box probe (dsDNA)
DNA 1: TACTTCCTCGGTTTCATCGTCCAC
DNA 2: GTGGACGATGAAACCGAGGAAGTA
binding result [2]: binds
